What was measured:
Test in all cases: competition ELISA: soluble cytokine against J695 (100 ng/ml) binding to immobilized human IL-12
[1] = target: human IGF-I (human, UniProt P05019 49-118)
Procedure: (§1) The plates were washed 4 times and incubated for 1 h at room temperature with 100 μl mouse anti-human lambda-HRP (1:500 in PBS-T/BSA, Southern Biotech. Ass. Inc., Birmingham, Ala.). The plates were washed 4 times and developed with ABTS (Kirkegaard & Perry Lab, Gaithersburg, Md.) for 20-30 minutes in the dark. The OD₄₅₀ nm was read using a microplate reader (Molecular Devices, Menlo Park, Calif.).

[2] = target: human IL-6 (human, UniProt P05231 30-212)
Procedure: as §1

[3] = target: T1, human IL-11 (human, UniProt P20809 22-199)
T1 sequence (looked up): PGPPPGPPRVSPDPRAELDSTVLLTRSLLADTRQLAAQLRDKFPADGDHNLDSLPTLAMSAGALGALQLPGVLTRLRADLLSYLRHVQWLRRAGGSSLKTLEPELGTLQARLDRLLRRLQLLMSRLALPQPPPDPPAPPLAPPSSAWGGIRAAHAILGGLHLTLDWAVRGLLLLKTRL
Procedure: as §1

[4] = target: human LIF (human, UniProt P15018 23-202)
Procedure: as §1

Measured: binding result

human IL-6, sequence (P05231 30-212 limits assumed): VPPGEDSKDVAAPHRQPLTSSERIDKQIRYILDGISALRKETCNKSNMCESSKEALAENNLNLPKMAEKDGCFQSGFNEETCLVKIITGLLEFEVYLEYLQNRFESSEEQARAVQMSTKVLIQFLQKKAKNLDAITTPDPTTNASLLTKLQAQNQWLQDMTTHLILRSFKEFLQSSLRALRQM
human LIF, sequence (P15018 23-202 limits assumed): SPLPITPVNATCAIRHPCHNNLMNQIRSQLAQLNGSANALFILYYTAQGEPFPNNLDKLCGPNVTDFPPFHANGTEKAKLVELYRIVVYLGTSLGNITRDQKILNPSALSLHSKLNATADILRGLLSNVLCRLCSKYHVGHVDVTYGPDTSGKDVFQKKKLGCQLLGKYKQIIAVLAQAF

B1: J695 (antibody, V domains shown)
VH: QVQLVESGGGVVQPGRSLRLSCAASGFTFSSYGMHWVRQAPGKGLEWVAFIRYDGSNKYYADSVKGRFTISRDNSKNTLYLQMNSLRAEDTAVYYCKTHGSHDNWGQGTMVTVSS
VL: QSVLTQPPSVSGAPGQRVTISCSGSRSNIGSNTVKWYQQLPGTAPKLLIYYNDQRPSGVPDRFSGSKSGTSASLAITGLQAEDEADYYCQSYDRYTHPALLFGTGTKVTVLG
notes: Human IgG1 with lambda light chain (detected with anti-human lambda); Made in CHO or COS cells
no binding (tested: 2 nM): all assays above

Reference: US20150037348A1 (AbbVie / Abbott, published 2015)
